Reference: PMC2148210 (The Journal of Cell Biology, 1999)

Target: microtubules assembled from bovine brain phosphocellulose-tubulin with taxol (bovine, UniProt Q6B856 1-445)
Assay: co-sedimentation

Sequence of microtubules assembled from bovine brain phosphocellulose-tubulin with taxol (Q6B856 whole entry, looked up): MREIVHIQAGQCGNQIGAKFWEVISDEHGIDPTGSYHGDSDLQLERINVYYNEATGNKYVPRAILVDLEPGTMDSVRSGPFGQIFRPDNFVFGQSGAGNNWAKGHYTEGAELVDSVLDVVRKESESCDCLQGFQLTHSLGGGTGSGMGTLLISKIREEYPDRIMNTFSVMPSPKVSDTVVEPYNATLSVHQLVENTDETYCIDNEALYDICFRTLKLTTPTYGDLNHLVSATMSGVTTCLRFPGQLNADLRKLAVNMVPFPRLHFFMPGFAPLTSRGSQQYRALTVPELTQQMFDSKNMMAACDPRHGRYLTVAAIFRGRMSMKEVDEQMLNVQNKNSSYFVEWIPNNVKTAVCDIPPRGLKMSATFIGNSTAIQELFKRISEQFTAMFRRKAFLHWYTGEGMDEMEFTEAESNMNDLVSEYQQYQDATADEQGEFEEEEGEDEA

B1: GMAP-210 (Golgi microtubule-associated protein 210), endogenous (natural protein, human (endogenous in HeLa), UniProt Q15643 1-1979, looked up)
chain: MSSWLGGLGSGLGQSLGQVGGSLASLTGQISNFTKDMLMEGTEEVEAELPDSRTKEIEAIHAILRSENERLKKLCTDLEEKHEASEIQIKQQSTSYRNQLQQKEVEISHLKARQIALQDQLLKLQSAAQSVPSGAGVPATTASSSFAYGISHHPSAFHDDDMDFGDIISSQQEINRLSNEVSRLESEVGHWRHIAQTSKAQGTDNSDQSEICKLQNIIKELKQNRSQEIDDHQHEMSVLQNAHQQKLTEISRRHREELSDYEERIEELENLLQQGGSGVIETDLSKIYEMQKTIQVLQIEKVESTKKMEQLEDKIKDINKKLSSAENDRDILRREQEQLNVEKRQIMEECENLKLECSKLQPSAVKQSDTMTEKERILAQSASVEEVFRLQQALSDAENEIMRLSSLNQDNSLAEDNLKLKMRIEVLEKEKSLLSQEKEELQMSLLKLNNEYEVIKSTATRDISLDSELHDLRLNLEAKEQELNQSISEKETLIAEIEELDRQNQEATKHMILIKDQLSKQQNEGDSIISKLKQDLNDEKKRVHQLEDDKMDITKELDVQKEKLIQSEVALNDLHLTKQKLEDKVENLVDQLNKSQESNVSIQKENLELKEHIRQNEEELSRIRNELMQSLNQDSNSNFKDTLLKEREAEVRNLKQNLSELEQLNENLKKVAFDVKMENEKLVLACEDVRHQLEECLAGNNQLSLEKNTIVETLKMEKGEIEAELCWAKKRLLEEANKYEKTIEELSNARNLNTSALQLEHEHLIKLNQKKDMEIAELKKNIEQMDTDHKETKDVLSSSLEEQKQLTQLINKKEIFIEKLKERSSKLQEELDKYSQALRKNEILRQTIEEKDRSLGSMKEENNHLQEELERLREEQSRTAPVADPKTLDSVTELASEVSQLNTIKEHLEEEIKHHQKIIEDQNQSKMQLLQSLQEQKKEMDEFRYQHEQMNATHTQLFLEKDEEIKSLQKTIEQIKTQLHEERQDIQTDNSDIFQETKVQSLNIENGSEKHDLSKAETERLVKGIKERELEIKLLNEKNISLTKQIDQLSKDEVGKLTQIIQQKDLEIQALHARISSTSHTQDVVYLQQQLQAYAMEREKVFAVLNEKTRENSHLKTEYHKMMDIVAAKEAALIKLQDENKKLSTRFESSGQDMFRETIQNLSRIIREKDIEIDALSQKCQTLLAVLQTSSTGNEAGGVNSNQFEELLQERDKLKQQVKKMEEWKQQVMTTVQNMQHESAQLQEELHQLQAQVLVDSDNNSKLQVDYTGLIQSYEQNETKLKNFGQELAQVQHSIGQLCNTKDLLLGKLDIISPQLSSASLLTPQSAECLRASKSEVLSESSELLQQELEELRKSLQEKDATIRTLQENNHRLSDSIAATSELERKEHEQTDSEIKQLKEKQDVLQKLLKEKDLLIKAKSDQLLSSNENFTNKVNENELLRQAVTNLKERILILEMDIGKLKGENEKIVETYRGKETEYQALQETNMKFSMMLREKEFECHSMKEKALAFEQLLKEKEQGKTGELNQLLNAVKSMQEKTVVFQQERDQVMLALKQKQMENTALQNEVQRLRDKEFRSNQELERLRNHLLESEDSYTREALAAEDREAKLRKKVTVLEEKLVSSSNAMENASHQASVQVESLQEQLNVVSKQRDETALQLSVSQEQVKQYALSLANLQMVLEHFQQEEKAMYSAELEKQKQLIAEWKKNAENLEGKVISLQECLDEANAALDSASRLTEQLDVKEEQIEELKRQNELRQEMLDDVQKKLMSLANSSEGKVDKVLMRNLFIGHFHTPKNQRHEVLRLMGSILGVRREEMEQLFHDDQGGVTRWMTGWLGGGSKSVPNTPLRPNQQSVVNSSFSELFVKFLETESHPSIPPPKLSVHDMKPLDSPGRRKRDTNAPESFKDTAESRSGRRTDVNPFLAPRSAAVPLINPAGLGPGGPGHLLLKPISDVLPTFTPLPALPDNSAGVVLKDLLKQ
- fold increase of bound protein, sheared against unsheared microtubules: 1.8 fold
